Earlier results, collected in article PMC9871372.

Target: NisA precursor peptide (Lactococcus lactis) (UniProt P13068)
Chain of UniProt P13068 (P13068 24-57): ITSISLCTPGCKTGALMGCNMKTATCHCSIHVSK

Substance: NisB (from UniProt P20103)
- Kd: 1050 nM
